Measurements published in paper PMC4895335.

Biological target: T1, Ms4022 (TetR family regulator) (Mycobacterium smegmatis mc2 155) (UniProt A0QZH0)
T1 sequence: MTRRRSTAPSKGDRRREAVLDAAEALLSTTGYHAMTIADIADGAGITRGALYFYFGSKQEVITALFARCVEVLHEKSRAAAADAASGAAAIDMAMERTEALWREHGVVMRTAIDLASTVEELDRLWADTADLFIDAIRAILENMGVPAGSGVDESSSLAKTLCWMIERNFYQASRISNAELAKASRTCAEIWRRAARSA
Assay: EMSA
Settings: EMSA: 50 mM Tris-HCl pH 7.5, 10 mM MgCl2, 50 mM NaCl, 4 C 30 min, 5% native PAGE in 0.5x TBE at room temperature; footprinting: binding as in EMSA, DNase I at …

| Sequence | binding |
| --- | --- |
| GCCTTACGGCACAACGACTTCGGGCTGGCGGCCCGGCGTCGTCGCATCGCGCACGTCCGGTCGGACGCCCCCAGTCGGCCCCTCCGGACTAGGCGTCCACGCCGATACTTGACGGAGTGCTTATTTTTTTCGACACTGTGCTTATTGAGATGGCGGGGCATGGAGGCAGCGATGCGAACAATCTTGATCGCCGGAACGAGCGGCGACTTCCGGCGAGCATTCGCCGAGGCGGTT (double strand) [Ms4022p s2] | binds |
| ACGCCGATACTTGACGGAGTGCTTATTTTTTTCGACACTGTGCTTATTGAGATGGCGGGGCATGGAGGCAGCGATGCGAACAATCTTGATCGCCGGAACGAGCGGCGACTTCCGGCGAGCATTCGCCGAGGCGGTTGCGCCTTGGCGTGCACACAGTCGCATCCCCGACCTCGCCGACGCCGCTGTCGGCCCATCCGGGAAGGACCATCCGTGACGAAATCCA (double strand) [Ms4022p s1] | binds |
| GTCGATCTCCGTCGGGTCAACGGGCGAACTTCCCTGTCACGGCAGTCAGGTTAGCACGAATCCACACAGTGCTGATTTTTATCAGCTTGTTGTCGGCGACGCGGTCACCCGTTTCGGTCGCGAGGTGTCTGATCGGTCGCCATCGGTTATGGCCTTACGGCACAACGACTTCGGGCTGGCGGCCCGGCGTCGTCGCATCGCGCACGTCCGGTCGGACGCCCCCAGTCGGCCCCTCCGGACTAGGCGTCCACGCCGATACTTGACGGAGT (double strand) [Ms4022p s3] | binds |
